Kd, fold improvement in Kd vs wildtype and fold improvement in Kd over wildtype data for 19 substances are collected here from patent publication US20250243261A1.

Like-named read-outs stand apart in the source and are kept apart here. A value given as a limit tells only on which side of the number the result lay.

The target in experiment [1] is HA H4 Hubei, A/swine/Hubei/06/2009(H4N1) (Influenza A virus).
The target of experiment [2] is HA H7 HK17, A/Hong Kong/125/2017(H7N9) (Influenza A virus).
Experiment [3] deals with HA H4 Hubei, A/swine/Hubei/06/2009(H4N1) (Influenza A virus). This is another data set of the same source.
Experiment [4] addresses HA H7 HK16, A/Hong Kong/61/2016(H7N9) (Influenza A virus).
Experiment [5] concerns the target HA H7 HK17, A/Hong Kong/125/2017(H7N9) (Influenza A virus). This is another data set of the same source.
Experiment [6] deals with HA H2 Japan, A/Japan/305/1957(H2N2) (Influenza A virus).
Experiment [7] deals with HA H5 Vietnam, A/Vietnam/1203/2004(H5N1) (Influenza A virus).
Experiment [8] addresses HA H7 HK17, A/Hong Kong/125/2017(H7N9) (Influenza A virus). The source holds these as a separate data set.
The target of experiment [9] is HA H7 HK16, A/Hong Kong/61/2016(H7N9) (Influenza A virus). The source holds these as a separate data set.

Substance “MEDI8852 UCA VH K58S-V65P IgG (antibody)” came in with a Kd in experiment [1] of 80 nM.

Turning to “MEDI8852 UCA VH K58S-V65P/VL G95P IgG (antibody)”, the values for the dissociation constant (Kd) in [1] and in experiment [2] were 30 nM and 5.6 nM, respectively.

On to MEDI8852 VH D27F Fab, for which the results for the Kd in experiment [3] and in [4] were 0.9 nM and 9 nM, respectively.

With MEDI8852 VH E65P Fab, the Kd was 0.31 nM in experiment [3]; 2.33 nM in experiment [4]; 0.1 nM in experiment [5]; under 0.001 nM in [6]; under 0.001 nM in experiment [7].

On to MEDI8852 VH E65P-M117Y Fab, for which the Kd in [3] was 0.36 nM; in experiment [4], 2.7 nM; in [5] it was 0.043 nM.

In the case of MEDI8852 VH E65R Fab, the Kd in experiment [3] is 0.32 nM; in [4], 1.54 nM; in [5] it was 0.036 nM; in [6] it was under 0.001 nM; in [7] it was under 0.001 nM.

For MEDI8852 VH E65R-M117Y Fab, the Kd in experiment [3] was 0.248 nM; in [4] it was 1.7 nM; in [5], 0.02 nM; in experiment [6] it was under 0.001 nM; in [7], under 0.001 nM. This substance showed a fold improvement in Kd vs wildtype in experiment [8] of 10 fold. The substance also yielded a fold improvement in Kd over wildtype in experiment [9] of 3.6 fold.

For the substance MEDI8852 VH I24V Fab, the figures for the Kd in experiment [3] and in experiment [4] were 0.87 nM and 8.58 nM, respectively.

With MEDI8852 VH M117Y Fab, the values for the Kd in experiment [3] and in experiment [4] were 0.356 nM and 4.07 nM, respectively.

Turning to MEDI8852 VH N74S Fab, the Kd in [3] amounted to 0.531 nM; in experiment [4] it was 5.98 nM.

With MEDI8852 VH P75R Fab, the Kd in [3] came to 0.779 nM; in experiment [4], 7.14 nM.

Turning to MEDI8852 VH S44G Fab, the Kd in experiment [3] is 0.596 nM; in experiment [4] it was 7.03 nM.

Turning to MEDI8852 VH T53I Fab, the Kd was found to be 0.747 nM in experiment [3] and 10.3 nM in experiment [4].

With MEDI8852 VL G55A Fab, the Kd in experiment [3] was determined as 0.512 nM; in [4] it was 5.11 nM.

With MEDI8852 VL G95P Fab, the Kd came to 0.802 nM in [3] and 5.31 nM in experiment [4].

MEDI8852 VL L29V Fab: the Kd turned out to be 4.2 nM in experiment [3] and 80 nM in experiment [4].

On to MEDI8852 VL R92D Fab, for which, in experiment [4], the dissociation constant Kd is 26.4 nM.

On to MEDI8852 VL T25A Fab, for which the results for the Kd in experiment [3] and in experiment [4] were 1.45 nM and 16.8 nM, respectively.

As for MEDI8852 VL T33L Fab, the dissociation constant Kd in experiment [3] was found to be 3.2 nM; in experiment [4], 41 nM.

In general, Kd refers to the equilibrium constant for the complex coming apart.
